Non-standard residues stand in square brackets, D forms with d. *: point of attachment. X3 = ((1S)-1-Carboxy-2-hydroxyethyl)carbamoyl, O=C(O)[C@H](CO)NC(=O)*; (2-Carboxyethyl)carbamoyl = O=C(O)CCNC(=O)*; (carboxymethyl)carbamoyl = O=C(O)CNC(=O)*; tBuAla = CC(C)(C)C[C@H](N)C(=O)O; 4Pal = N[C@@H](Cc1ccncc1)C(=O)O; dHyp = O=C(O)[C@H]1C[C@H](O)CN1; Cha = N[C@@H](CC1CCCCC1)C(=O)O; Iva = CC[C@](C)(N)C(=O)O; Aib = CC(C)(N)C(=O)O
Key:
human Y2 receptor [1] = target: T1, human Y2 receptor (Homo sapiens, UniProt P49146); assay: Receptor Binding Assay (RBA) for Human Y2, [125I]-PYY displacement on hY2R/CHO membrane fraction; details: IC50 of test compound/IC50 of PYY(3-36) (PYY(3-36) taken as 1)
T1 construct: expressed in transfected cells; membrane fraction
T1 sequence (P49146 1-381): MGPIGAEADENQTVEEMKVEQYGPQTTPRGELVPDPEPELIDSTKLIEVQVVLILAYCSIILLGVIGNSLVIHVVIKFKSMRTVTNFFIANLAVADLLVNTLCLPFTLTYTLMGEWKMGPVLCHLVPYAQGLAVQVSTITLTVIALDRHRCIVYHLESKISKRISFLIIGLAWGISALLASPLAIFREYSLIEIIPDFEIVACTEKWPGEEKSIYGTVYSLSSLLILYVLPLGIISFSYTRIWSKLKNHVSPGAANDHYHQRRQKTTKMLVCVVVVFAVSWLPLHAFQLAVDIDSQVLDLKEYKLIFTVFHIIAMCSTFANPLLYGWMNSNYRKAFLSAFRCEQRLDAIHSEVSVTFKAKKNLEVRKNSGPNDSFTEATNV
Outline: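 hY2R stably expressed in CHO/dhfr− cells; membrane fraction prepared from cells disrupted in 10 mM NaHCO3, 5 mM EDTA buffer with protease inhibitors. Binding read as displacement of [125I]-PYY.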

male C57EL/6J mice = assay: 3-Days Continuous Subcutaneous Administration Test-1 (food intake suppressing activity); format: in vivo, mouse; details: 0.03 mg/kg/day, subcutaneous Alzet pump, food consumption over 3 days; relative to food intake suppression rate for PYY(3-36) (1 mg/kg/day) taken as 100%
Method: (4) Test Method: 3-Days Continuous Subcutaneous Administration Test-1
The food intake suppressing activity of the compound of the present invention was examined by the method described below.
The test compound was dissolved in 50% DMSO so that sustained release would occur at 0.03 mg/kg/day, and the solution was filled in the Alzet Pump (Alzet model: 1003D, sustained release rate: 1 μL/hr, capacity: 100 μL). After the filling, the pump was placed in a 2 mL Eppendorf tube containing 330 μL of physiological saline, and incubated at 37° C. for 2 hours or more. Thereafter, this pump was subcutaneously embedded in the back of each mouse by the method described below. After weighing, each male […] mice at 12-13 weeks of age (25° C., allowed to take food and water ad libitum; 12-hour bright-12-hour dark cycle, lighting turned on at 08:00) was anesthetized with diethyl ether; the skin in the upper back thereof was incised, and the above-mentioned pump was embedded subcutaneously. Thereafter, several drops of penicillin solution (100000 units/mL) were added to the incised part, and the incision was sutured using Michel's surgical needle. This mouse was returned to the rearing cage (reared alone), and given previously weighed food; 3 days later, the amount of remaining food was measured. Food consumption was calculated by subtracting the amount of remaining food after 3 days from the weight of the food given on the day of pump embedding. The food intake suppressing activity of each test compound was expressed as a food intake suppression rate (%) relative to the food intake suppression rate for PYY(3-36) (1 mg/kg/day) taken as 100%.

human Y2 receptor [2] = target: T1, human Y2 receptor; assay: Human Y2 Receptor G Protein Binding Assay (GBA), [35S]GTPγS; format: biochemical; details: EC50 of test compound/EC50 of PYY(3-36) (PYY3-36 taken as 1), hY2R/CHO membrane fraction
Outline: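 Agonism measured as [35S]GTPγS binding, read by GF/C filtration and scintillation counting after 120 min at room temperature, using human Y2 membranes at 1 μg protein/mL in pH 7.4 Tris/MgCl2/NaCl/GDP buffer. Compound serially diluted 100 μM–1 nM; EC50 normalized to PYY(3-36) (ratio = compound/PYY).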

Row | RBA IC50 Ratio (human Y2 receptor [1]) | GBA EC50 Ratio (human Y2 receptor [2]) | Substance | food intake suppression rate (%) (male C57EL/6J mice)
1 | 1.2 | 1.9 | Ac-[Glu23, D-Hyp24, Iva25, Pya(4)26, Cha27,36, Leu(Me)28, Lys30, Aib31]-PYY(23-36) (Ac-E[dHyp][Iva][4Pal][Cha][tBuAla]NK[Aib]TRQR[Cha]-NH2; SMILES CC[C@](C)(NC(=O)[C@H]1C[C@H](O)CN1C(=O)[C@H](CCC(=O)O)NC(C)=O)C(=O)N[C@@H](Cc1ccncc1)C(=O)N[C@@H](CC1CCCCC1)C(=O)N[C@@H](CC(C)(C)C)C(=O)N[C@@H](CC(N)=O)C(=O)N[C@@H](CCCCN)C(=O)NC(C)(C)C(=O)N[C@H](C(=O)N[C@@H](CCCNC(=N)N)C(=O)N[C@@H](CCC(N)=O)C(=O)N[C@@H](CCCNC(=N)N)C(=O)N[C@@H](CC1CCCCC1)C(N)=O)[C@@H](C)O) [compound No. 351] | 27
2 | 1.3 | 0.94 | (2-Carboxyethyl)carbamoyl-[D-Pro24, Pya(4)26, Cha27,36, Aib28,31, Lys30]-PYY(23-36) ({(2-Carboxyethyl)carbamoyl}-S[dP]R[4Pal][Cha][Aib]NK[Aib]TRQR[Cha]-NH2; SMILES C[C@@H](O)[C@H](NC(=O)C(C)(C)NC(=O)[C@H](CCCCN)NC(=O)[C@H](CC(N)=O)NC(=O)C(C)(C)NC(=O)[C@H](CC1CCCCC1)NC(=O)[C@H](Cc1ccncc1)NC(=O)[C@H](CCCNC(=N)N)NC(=O)[C@H]1CCCN1C(=O)[C@H](CO)NC(=O)NCCC(=O)O)C(=O)N[C@@H](CCCNC(=N)N)C(=O)N[C@@H](CCC(N)=O)C(=O)N[C@@H](CCCNC(=N)N)C(=O)N[C@@H](CC1CCCCC1)C(N)=O) [compound No. 326] | 57
3 | 3.0 | 1.6 | (Carboxymethyl)carbamoyl-[D-Pro24, Iva25, Pya(4)26, Cha27,36, Aib28,31, Lys30]-PYY(23-36) ({(carboxymethyl)carbamoyl}-S[dP][Iva][4Pal][Cha][Aib]NK[Aib]TRQR[Cha]-NH2; SMILES CC[C@](C)(NC(=O)[C@H]1CCCN1C(=O)[C@H](CO)NC(=O)NCC(=O)O)C(=O)N[C@@H](Cc1ccncc1)C(=O)N[C@@H](CC1CCCCC1)C(=O)NC(C)(C)C(=O)N[C@@H](CC(N)=O)C(=O)N[C@@H](CCCCN)C(=O)NC(C)(C)C(=O)N[C@H](C(=O)N[C@@H](CCCNC(=N)N)C(=O)N[C@@H](CCC(N)=O)C(=O)N[C@@H](CCCNC(=N)N)C(=O)N[C@@H](CC1CCCCC1)C(N)=O)[C@@H](C)O) [compound No. 327] | 58
4 | 6.1 | 2.8 | Ac-[Glu23, D-Pro24, Iva25, Pya(4)26, Cha27,36, Aib28,31, Lys30]-PYY(23-36) (Ac-E[dP][Iva][4Pal][Cha][Aib]NK[Aib]TRQR[Cha]-NH2; SMILES CC[C@](C)(NC(=O)[C@H]1CCCN1C(=O)[C@H](CCC(=O)O)NC(C)=O)C(=O)N[C@@H](Cc1ccncc1)C(=O)N[C@@H](CC1CCCCC1)C(=O)NC(C)(C)C(=O)N[C@@H](CC(N)=O)C(=O)N[C@@H](CCCCN)C(=O)NC(C)(C)C(=O)N[C@H](C(=O)N[C@@H](CCCNC(=N)N)C(=O)N[C@@H](CCC(N)=O)C(=O)N[C@@H](CCCNC(=N)N)C(=O)N[C@@H](CC1CCCCC1)C(N)=O)[C@@H](C)O) [compound No. 322] | 31
5 | 3.5 | 3.0 | [(1S)-1-Carboxy-2-hydroxyethyl]carbamoyl-[D-Pro24, Iva25, Pya(4)26, Cha27,36, Aib28,31, Lys30]-PYY(23-36) (X3-S[dP][Iva][4Pal][Cha][Aib]NK[Aib]TRQR[Cha]-NH2; SMILES CC[C@](C)(NC(=O)[C@H]1CCCN1C(=O)[C@H](CO)NC(=O)N[C@@H](CO)C(=O)O)C(=O)N[C@@H](Cc1ccncc1)C(=O)N[C@@H](CC1CCCCC1)C(=O)NC(C)(C)C(=O)N[C@@H](CC(N)=O)C(=O)N[C@@H](CCCCN)C(=O)NC(C)(C)C(=O)N[C@H](C(=O)N[C@@H](CCCNC(=N)N)C(=O)N[C@@H](CCC(N)=O)C(=O)N[C@@H](CCCNC(=N)N)C(=O)N[C@@H](CC1CCCCC1)C(N)=O)[C@@H](C)O) [compound No. 332] | 32

Reference: patent US9260500B2, “Peptide and use thereof” (Takeda Pharmaceutical Company Limited, priority 2009, dated 2016)
